Measurements published in paper PMC10952505.

Legend:
[1] = biological target: HA-rat μ opioid receptor (rat) (UniProt P33535)
[2] = biological target: endogenous μ opioid receptor of rat locus coeruleus neurones (rat (endogenous in locus coeruleus neurones)) (UniProt P33535)
[3] = biological target: human μ opioid receptor-Renilla luciferase II (human) (UniProt P35372)
[4] = biological target: HA-rat μ opioid receptor (rat) (UniProt P33535); remark: listed apart in the source
[5] = biological target: human μ opioid receptor-Renilla luciferase II (human) (UniProt P35372); remark: listed apart in the source

Chain of UniProt P35372 (P35372 whole entry): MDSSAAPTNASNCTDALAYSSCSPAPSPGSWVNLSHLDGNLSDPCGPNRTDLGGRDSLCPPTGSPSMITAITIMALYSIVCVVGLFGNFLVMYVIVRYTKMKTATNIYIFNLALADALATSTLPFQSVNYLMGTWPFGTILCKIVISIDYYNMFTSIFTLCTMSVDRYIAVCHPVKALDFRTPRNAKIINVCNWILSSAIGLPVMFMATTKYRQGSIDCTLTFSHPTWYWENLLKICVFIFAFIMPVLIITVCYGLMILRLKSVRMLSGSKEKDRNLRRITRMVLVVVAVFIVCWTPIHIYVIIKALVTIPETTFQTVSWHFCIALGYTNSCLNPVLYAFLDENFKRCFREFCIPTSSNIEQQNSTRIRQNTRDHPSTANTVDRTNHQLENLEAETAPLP

G protein activation BRET (Gαi1-RlucII / GFP10-Gγ2) in HEK293T cells, log EC50 (M) [1]: -6.48 log EC50 (M)
cell surface receptor loss (ELISA of HA-tagged receptor, 1 h agonist) in HEK293T cells, log EC50 (M) [1]: -6.14 log EC50 (M)
opioid-evoked GIRK current in rat locus coeruleus neurones (whole-cell patch clamp), log EC50 (M) [2]: -7.29 log EC50 (M)
β-arrestin 2 recruitment BRET (μ opioid receptor-RlucII / β-arrestin 2-GFP10) in HEK293T cells, log EC50 (M) [3]: -5.7 log EC50 (M)
KA (equilibrium dissociation constant) by Furchgott's method from G protein activation BRET curves with and without β-FNA, whole cells [4]: 5.6 µM
KA (equilibrium dissociation constant) by Furchgott's method from β-arrestin 2 recruitment BRET curves with and without β-FNA, whole cells [5]: 1580 nM
Substance: DAMGO ([D-Ala^2, N-MePhe^4, Gly-ol]-enkephalin) (peptide)
